Data from patent US11866760B2, “Microorganisms for the production of insect pheromones and related compounds” (Provivi, Inc., priority 2017, dated 2024).

Key:
[1] = tested on: methyl palmitate; assay: HaFAR mutant library cultivation in 24 well plates in Y. lipolytica SPV603; format: cell-based, Yarrowia lipolytica; conditions: second FAR copy in SPV603, 24 well plates
Procedure: Four individual clones of positive integrants were tested. Cultivation was performed in 24 well plates. Briefly, 2 mL YPD was inoculated from patches of individual clones and incubated for 24 h at 28° C., 1000 rpm. After 24 h OD600 was measured and the cells were centrifuged at 1000 rpm (Table 23). The cell pellets were resuspended in 1 mL S2 media and 10 g/L methyl palmitate was added. The cells were incubated for 18 h at 28° C., 1000 rpm. Cultivations were stored at −20° C. until analyzed. Extraction and analysis was performed according to previously established standard protocols using GC-FID.
In a first round four individual isolate from each transformation was tested. Cultivation was performed in 24 well plates. 2 mL YPD was inoculated from patches of individual clones and incubated for 24 h at 28° C., 1000 rpm. After 24 h OD600 was measured and the cells were centrifuged at 1000 rpm. The cell pellets were resuspended in 1 mL S2 media and 10 g/L methyl palmitate was added. The cells were incubated for 24 h at 28° C., 1000 rpm. Cultivations were stored at −20° C. until analyzed. Next, four clones of the best performing positive integrant were tested. Cultivation was performed in 24 well plates. 2 mL YPD was inoculated from patches of individual clones and incubated for ˜28 h at 28° C., 1000 rpm. After 28 h OD600 was measured and the cells were centrifuged at 1000 rpm. The cell pellets were resuspended in 1 mL S2 media and 10 g/L methyl palmitate was added. The cells were incubated for 18 h at 28° C., 1000 rpm. Cultivations were stored at −20° C. until analyzed.
Cell pellets were resuspended with 500 μL 5% NaOH (in methanol) then heated for 1 hour at 85° C. Samples were cooled down and then acidified by adding 400 μL 5N HCl. Next, 500 μL chloroform (containing 1 mM C17:0 heptadecanoate internal standard) were added to samples. Samples were mixed vigorously then spun down for 2 minutes at 13,000 RPM using a table top centrifuge. 450 μL chloroform were transferred to a new vial then evaporated at 85° C. for ˜15 minutes. Samples were then resuspended in 50 μL BSTFA (and were now ready for GC analysis). After analysis of the fatty alcohols samples were diluted ˜1:10 and rerun on the GC to improve peak separation of the fatty acid peaks.
All quantifications were based on the concentration of the internal standard. The concentration of the internal standard C17ME is 1 mM. The final concentration of fatty alcohols as well as fatty acids were calculated based on the effective carbon number compared to the internal standard.

[2] = tested on: S. cerevisiae ΔOLE1; assay: ΔOLE1 growth complementation assay without UFA; format: cell-based, Saccharomyces cerevisiae
Excerpt: S. cerevisiae ΔOLE1 (MATA OLE1::LEU2 ura3-52 his4) was used as an expression host. A synthetic expression cassette termed pOLE1 (FIG. 10, SEQ ID NO: 4) which comprises the OLE1 promoter region (SEQ ID NOs: 5 and 6), nucleotides encoding for 27 N-terminal amino acids of the OLE1 leader sequence (SEQ ID NO: 7), and a VPS13 terminator sequence (SEQ ID NO: 8) was created, and cloned into pESC-URA vector in between SacI and EcoRI sites. To test the functionality of the pOLE1 cassette, Dasher GFP synthon was inserted in between SpeI and NotI sites to create pOLE1-GFP plasmid. Competent ΔOLE1 was transformed with pOLE1-GFP, and plated on CM-Ura glucose agar plate (Teknova) containing UFA (20 mm CM-URA glucose agar plate was coated with 100 μL CM-Ura glucose medium containing 1% tergitol, and 3 μL palmitoleic acid). […] Validation of ΔOLE1 complementation was performed by restoring OLE1 activity. Specifically, native S. cerevisiae OLE1 synthon was inserted into pOLE1 cassette devoid of the leader sequence to create pOLE1-OLE1 plasmid. After transformation of ΔOLE1, and selection on CM-Ura glucose agar containing UFA, single colonies were patched onto YPD and CM-Ura glucose without UFA. After incubation at 30° C. for 5 days, growth was observed (FIG. 11A-FIG. 11E). As expected, Dasher GFP expression could not complement ΔOLE1 growth without UFA (FIG. 11A-FIG. 11E). DNA sequences which encode for desaturase variants were synthesized (to include nucleotide changes which remove restriction sites used for cloning purposes), and cloned into pOLE1 using SpeI-NotI sites (Genscript, SEQ ID NOs: 9-13). Complementation assay of ΔOLE1 with insect desaturases were performed in the same way as with OLE1 desaturase.

[3] = tested on: palmitic acid; assay: in vivo bioconversion assay of desaturases in C. tropicalis SPV053; format: cell-based, Candida tropicalis
Procedure: Functional expression of the heterologous desaturases was characterized by a series of in vivo bioconversion experiments. C. tropicalis SPV053 derived stains expressing insect desaturases were cultured in rich (YPD) or defined (CM glucose) media supplemented with ethanol (for induction) and saturated acid substrates (palmitic acid, methyl palmitate, methyl myristate). Small scale (2 ml) cultures were cultivated for a total of 72 hours in 24 deep well plates with substrate added after the initial 24 hours.
Positive isolates were re-patched onto YPD+300 μg/ml Zeocin and grown overnight and then stored at 4° C. Strains were inoculated from patch plates into 2 ml of YPD in 24 deep well plates (square well, pyramid bottom). Three positive clones were inoculated for each desaturase variant and the mCherry expressing control strain. Deep well plates were incubated at 30° C., 1000 rpm, and 80% humidity in the Infors HT Multitron Pro plate shaker for 24 hrs. After 24 hrs of incubation, cultures were split into equal 1 ml volumes to make two sets of identical plates. Both sets of plates were pelleted by centrifugation at 500×g. One set of plates was resuspended in 2 ml of YPD+0.3% (v/v) ethanol and the second set was resuspended in 2 ml of CM glucose+0.3% ethanol. Ethanol was added at this stage to induce recombinant enzyme expression from the ICL promoter. Cultures were incubated for another 24 hours under the same conditions before 300 mg/L palmitic acid was added to cultures from a 90 g/L stock solution in ethanol. The result was the addition of a fresh 0.3% ethanol in conjunction with the palmitic acid. A subset of strains was also cultured without palmitic acid addition. These cultures had 0.3% ethanol added instead. All cultures were incubated for an additional 24 hrs before a final addition of 0.3% ethanol. After another 24 hr period of incubation, 1.5 ml of each culture was harvested in 1.7 ml microcentrifuge tubes and pelleted. Supernatant was saved in fresh tubes and pellets were processed as described below. A subset of supernatant samples was also extracted to look for free acid in the extracellular medium.
The mCherry control and confirmed positive variants were rescreened using both palmitic acid and methyl palmitate as substrates. The culturing was conducted as described above with equimolar (1.17 mM) amounts of substrate added from ethanol stock solutions (methyl palmitate 94 g/L stock, 313 mg/L final concentration). The same protocol was also repeated with the full panel of strains using an 84 g/L stock of methyl myristate (C14:0). The final concentration of substrate was again 1.17 mM.
The in vivo bioconversion assay was scaled up for confirmation of (Z)-11-hexadecenoic acid synthesis. 2 ml YPD seed cultures of strains SPV0302, SPV0303, and SPV0304 (mCherry), […], SPV0305, and SPV0306 (A. transitella Z11 desaturase), and SPV0307, SPV0308, and SPV0309 (H. zea Z11 desaturase) were grown overnight at 30° C., 1000 rpm, 80% humidity in the Infors HT Multitron plate shaker. 200 μl of overnight culture from each of the three clonal isolates was pooled and inoculated into a single 125 ml baffled flask containing 20 ml YPD. The resulting three flasks were grown for 24 hrs at 30° C. and 250 rpm (Infors Flask shaker). Cultures were pelleted by centrifugation at 500×g and resuspended in 20 ml of YPD+0.3% (v/v) ethanol and returned to 125 ml baffled shake flasks. Cultures were incubated for an additional 24 hours before addition of 300 mg/L palmitic acid in a 90 g/L stock in ethanol (221 μl per flask). After 24 hours of incubation another 0.3% (v/v) ethanol (221 μl) was added to each flask for sustained induction. Flasks were incubated for an additional 24 hours before cells were harvested for FAME analysis and DMDS derivatization.
Total lipid composition as well as the (Z)-11-hexadecenoic acid quantification was based on modified procedures by Moss et al. (1982) and Yousuf et al (2010). […]

[4] = SPV053, supplementation not stated

B1: HaFAR (S60A) (protein)
chain: MVVLTSKETKPSVAEFYAGKSVFITGGTGFLGKVFIEKLLYSCPDIENIYMLIREKKGLAVSERIKQFLDDPLFTRLKDKRPADLEKIVLIPGDITAPDLGINSENEKMLIEKVSVIIHSAATVKFNEPLPTAWKINVEGTRMMLALSRRMKRIEVFIHISTAYTNTNREVVDEILYPAPADIDQVHQYVKDGISEEDTEKILNGRPNTYTFTKALTEHLVAENQAYVPTIIVRPSVVAAIKDEPLKGWLGNWFGATGLTVFTAKGLNRVIYGHSSYIVDLIPVDYVANLVIAAGAKSSKSTELKVYNCCSSSCNPVTIGTLMSMFADDAIKQKSYAMPLPGWYIFTKYKWLVLLLTFLFQVIPAYVTDLSRHLIGKSPRYIKLQSLVNQTRSSIDFFTNHSWVMKADRVRELYASLSPADKYLFPCDPTDINWTHYIQDYCWGVRHFLEKKSYE
Z11-16OH titers compared to the HaFAR double copy strain [1]: neutral or showed slight increases

B2: HaFAR (S298A) (protein)
chain: MVVLTSKETKPSVAEFYAGKSVFITGGTGFLGKVFIEKLLYSCPDIENIYMLIREKKGLSVSERIKQFLDDPLFTRLKDKRPADLEKIVLIPGDITAPDLGINSENEKMLIEKVSVIIHSAATVKFNEPLPTAWKINVEGTRMMLALSRRMKRIEVFIHISTAYTNTNREVVDEILYPAPADIDQVHQYVKDGISEEDTEKILNGRPNTYTFTKALTEHLVAENQAYVPTIIVRPSVVAAIKDEPLKGWLGNWFGATGLTVFTAKGLNRVIYGHSSYIVDLIPVDYVANLVIAAGAKASKSTELKVYNCCSSSCNPVTIGTLMSMFADDAIKQKSYAMPLPGWYIFTKYKWLVLLLTFLFQVIPAYVTDLSRHLIGKSPRYIKLQSLVNQTRSSIDFFTNHSWVMKADRVRELYASLSPADKYLFPCDPTDINWTHYIQDYCWGVRHFLEKKSYE
Z11-16OH titers compared to the HaFAR double copy strain [1]: neutral or showed slight increases

B3: HaFAR (S453A) (protein)
chain: MVVLTSKETKPSVAEFYAGKSVFITGGTGFLGKVFIEKLLYSCPDIENIYMLIREKKGLSVSERIKQFLDDPLFTRLKDKRPADLEKIVLIPGDITAPDLGINSENEKMLIEKVSVIIHSAATVKFNEPLPTAWKINVEGTRMMLALSRRMKRIEVFIHISTAYTNTNREVVDEILYPAPADIDQVHQYVKDGISEEDTEKILNGRPNTYTFTKALTEHLVAENQAYVPTIIVRPSVVAAIKDEPLKGWLGNWFGATGLTVFTAKGLNRVIYGHSSYIVDLIPVDYVANLVIAAGAKSSKSTELKVYNCCSSSCNPVTIGTLMSMFADDAIKQKSYAMPLPGWYIFTKYKWLVLLLTFLFQVIPAYVTDLSRHLIGKSPRYIKLQSLVNQTRSSIDFFTNHSWVMKADRVRELYASLSPADKYLFPCDPTDINWTHYIQDYCWGVRHFLEKKAYE
Z11-16OH titers compared to the HaFAR double copy strain [1]: neutral or showed slight increases

B4: A. transitella desaturase: Amyelois transitella Z11 desaturase (JX964774) (protein, listed as Amyelois transitella)
chain: MVPNKGSSDVLSEHSEPQFTKLIAPQAGPRKYKIVYRNLLTFGYWHLSAVYGLYLCFTCAKWATILFAFFLYVIAEIGITGGAHRLWAHRTYKAKLPLEILLLIMNSIAFQDTAFTWARDHRLHHKYSDTDADPHNATRGFFYSHVGWLLVKKHPEVKARGKYLSLDDLKNNPLLKFQKKYAILVIGTLCFLMPTFVPVYFWGEGISTAWNINLLRYVMNLNMTFLVNSAAHIFGNKPYDKSIASVQNISVSLATFGEGFHNYHHTYPWDYRAAELGNNRLNMTTAFIDFFAWIGWAYDLKSVPQEAIAKRCAKTGDGTDMWGRKR
rescue of ΔOLE1 growth without UFA ([2]; minimal medium (CM-Ura glucose) agar plate): conferred growth without UFA | rescue of ΔOLE1 growth without UFA ([2]; rich medium (YPD) agar plate): conferred growth without UFA | (Z)-11-hexadecenoic acid titer ([3]; SPV053): approximately 5.62 mg/L | activity on myristoyl-CoA ([3]; SPV053, methyl myristate substrate): some activity on myristoyl-CoA | (Z)-9-hexadecenoic acid in C16-fatty acid composition [3, 4]: 14.5% | (Z)-11-hexadecenoic acid in C16-fatty acid composition [3, 4]: 30.0% | hexadecanoic acid in C16-fatty acid composition [3, 4]: 55.5%
